The Human Domainome abundance scans (Beltran et al. 2025)
± gives the uncertainty stated by the source.

B1: Ankyrin-1, residues 1405 to 1484; numbered along this chain, P16157 (parent)
chain: MKMAVISEHLGLSWAELARELQFSVEDINRIRVENPNSLLEQSVALLNLWVIREGQNANMENLYTALQSIDRGEIVNMLE

Variants of: B1
Experiment: abundance fitness (aPCA) (normalised: wild type 0, dead -1); higher = more abundant; growth selection in yeast, the domain comes from the species named
Details: Homo sapiens
With MKMAVISEHLGLSWAELARELQFSVEDINRIRVENPNSLLEQSVALLNLWVIREGQNANMENLYTALQSIDRGRIVNMLE the abundance fitness was -0.65 ± 0.092.
For MKMAVISEHLGLSWAELARELQFSVEDINRIRVENPNSLLEQSVALLNLWVIREGQNANMENLYTALQSIDRGLIVNMLE, the abundance fitness was -0.562 ± 0.11.
Work on MKMAVISEHLGLSWAELARELQFSVEDINRIRVENPNSLLEQSVALLNLWVIREGQNANMENLYTALQSIDRGEDVNMLE yielded an abundance fitness of -0.54 ± 0.39.
Variant MKMAVISEHLGLSWAELARELQFSVEDINRIRVENPNSLLEQSVALLNLWVIREGQNANMENLYTALQSIDRGEWVNMLE has an abundance fitness of -0.663 ± 0.17.
With MKMAVISEHLGLSWAELARELQFSVEDINRIRVENPNSLLEQSVALLNLWVIREGQNANMENLYTALQSIDRGEGVNMLE the abundance fitness was -0.509 ± 0.073.
With MKMAVISEHLGLSWAELARELQFSVEDINRIRVENPNSLLEQSVALLNLWVIREGQNANMENLYTALQSIDRGERVNMLE the abundance fitness was -0.915 ± 0.14.
Work on MKMAVISEHLGLSWAELARELQFSVEDINRIRVENPNSLLEQSVALLNLWVIREGQNANMENLYTALQSIDRGEVVNMLE yielded an abundance fitness of -0.098 ± 0.073.
MKMAVISEHLGLSWAELARELQFSVEDINRIRVENPNSLLEQSVALLNLWVIREGQNANMENLYTALQSIDRGEFVNMLE gave an abundance fitness of -0.785 ± 0.45.
Variant MKMAVISEHLGLSWAELARELQFSVEDINRIRVENPNSLLEQSVALLNLWVIREGQNANMENLYTALQSIDRGEHVNMLE has an abundance fitness of -0.594 ± 0.27.
MKMAVISEHLGLSWAELARELQFSVEDINRIRVENPNSLLEQSVALLNLWVIREGQNANMENLYTALQSIDRGEYVNMLE showed an abundance fitness of -0.692 ± 0.36.
Variant MKMAVISEHLGLSWAELARELQFSVEDINRIRVENPNSLLEQSVALLNLWVIREGQNANMENLYTALQSIDRGESVNMLE has an abundance fitness of -0.457 ± 0.1.
MKMAVISEHLGLSWAELARELQFSVEDINRIRVENPNSLLEQSVALLNLWVIREGQNANMENLYTALQSIDRGEEVNMLE gave an abundance fitness of -0.766 ± 0.23.
MKMAVISEHLGLSWAELARELQFSVEDINRIRVENPNSLLEQSVALLNLWVIREGQNANMENLYTALQSIDRGECVNMLE showed an abundance fitness of -0.734 ± 0.23.
With MKMAVISEHLGLSWAELARELQFSVEDINRIRVENPNSLLEQSVALLNLWVIREGQNANMENLYTALQSIDRGELVNMLE the abundance fitness was -0.199 ± 0.08.
With MKMAVISEHLGLSWAELARELQFSVEDINRIRVENPNSLLEQSVALLNLWVIREGQNANMENLYTALQSIDRGETVNMLE the abundance fitness was -0.342 ± 0.13.
Work on MKMAVISEHLGLSWAELARELQFSVEDINRIRVENPNSLLEQSVALLNLWVIREGQNANMENLYTALQSIDRGEPVNMLE yielded an abundance fitness of -0.546 ± 0.14.
Work on MKMAVISEHLGLSWAELARELQFSVEDINRIRVENPNSLLEQSVALLNLWVIREGQNANMENLYTALQSIDRGEMVNMLE yielded an abundance fitness of -0.256 ± 0.17.
In the case of MKMAVISEHLGLSWAELARELQFSVEDINRIRVENPNSLLEQSVALLNLWVIREGQNANMENLYTALQSIDRMEIVNMLE, the abundance fitness is reported as -0.396 ± 0.085.
Work on MKMAVISEHLGLSWAELARELQFSVEDINRIRVENPNSLLEQSVALLNLWVIREGQNANMENLYTALQSIDRYEIVNMLE yielded an abundance fitness of -0.339 ± 0.085.
Variant MKMAVISEHLGLSWAELARELQFSVEDINRIRVENPNSLLEQSVALLNLWVIREGQNANMENLYTALQSIDRPEIVNMLE has an abundance fitness of -0.205 ± 0.058.
With MKMAVISEHLGLSWAELARELQFSVEDINRIRVENPNSLLEQSVALLNLWVIREGQNANMENLYTALQSIDREEIVNMLE the abundance fitness was -0.24 ± 0.064.
MKMAVISEHLGLSWAELARELQFSVEDINRIRVENPNSLLEQSVALLNLWVIREGQNANMENLYTALQSIDRKEIVNMLE gave an abundance fitness of -0.289 ± 0.079.
MKMAVISEHLGLSWAELARELQFSVEDINRIRVENPNSLLEQSVALLNLWVIREGQNANMENLYTALQSIDRAEIVNMLE showed an abundance fitness of -0.17 ± 0.038.
Variant MKMAVISEHLGLSWAELARELQFSVEDINRIRVENPNSLLEQSVALLNLWVIREGQNANMENLYTALQSIDRFEIVNMLE has an abundance fitness of -0.284 ± 0.1.
For MKMAVISEHLGLSWAELARELQFSVEDINRIRVENPNSLLEQSVALLNLWVIREGQNANMENLYTALQSIDRDEIVNMLE, the abundance fitness was -0.491 ± 0.11.
Variant MKMAVISEHLGLSWAELARELQFSVEDINRIRVENPNSLLEQSVALLNLWVIREGQNANMENLYTALQSIDRCEIVNMLE has an abundance fitness of -0.272 ± 0.096.
MKMAVISEHLGLSWAELARELQFSVEDINRIRVENPNSLLEQSVALLNLWVIREGQNANMENLYTALQSIDRQEIVNMLE gave an abundance fitness of -0.141 ± 0.066.
Variant MKMAVISEHLGLSWAELARELQFSVEDINRIRVENPNSLLEQSVALLNLWVIREGQNANMENLYTALQSIDRIEIVNMLE has an abundance fitness of -0.486 ± 0.13.
MKMAVISEHLGLSWAELARELQFSVEDINRIRVENPNSLLEQSVALLNLWVIREGQNANMENLYTALQSIDRVEIVNMLE showed an abundance fitness of -0.172 ± 0.038.
MKMAVISEHLGLSWAELARELQFSVEDINRIRVENPNSLLEQSVALLNLWVIREGQNANMENLYTALQSIDRNEIVNMLE gave an abundance fitness of -0.33 ± 0.15.
With MKMAVISEHLGLSWAELARELQFSVEDINRIRVENPNSLLEQSVALLNLWVIREGQNANMENLYTALQSIDRTEIVNMLE the abundance fitness was -0.306 ± 0.054.
For MKMAVISEHLGLSWAELARELQFSVEDINRIRVENPNSLLEQSVALLNLWVIREGQNANMENLYTALQSIDRSEIVNMLE, the abundance fitness was -0.192 ± 0.04.
With MKMAVISEHLGLSWAELARELQFSVEDINRIRVENPNSLLEQSVALLNLWVIREGQNANMENLYTALQSIDRREIVNMLE the abundance fitness was -0.297 ± 0.04.
Variant MKMAVISEHLGLSWAELARELQFSVEDINRIRVENPNSLLEQSVALLNLWVIREGQNANMENLYTALQSIDRWEIVNMLE has an abundance fitness of -0.29 ± 0.05.
MKMAVISEHLGLSWAELARELQFSVEDINRIRVENPNSLLEQSVALLNLWVIREGQNANMENLYTALQSIDRLEIVNMLE gave an abundance fitness of -0.399 ± 0.036.
